In PMC5766252, “Indole-3-acetaldehyde dehydrogenase-dependent auxin synthesis contributes to virulence of Pseudomonas syringae strain DC3000” (PLoS Pathogens, 2018):

B1: Indole-3-acetaldehyde dehydrogenase AldA (PSPTO_0092) (enzyme)
chain: MTTLTRADWEQRAQNLKIEGRAFIQGEYTAAASGETFDCISPVDGRLLAKVASCDAADAQRAVESARSAFDSGAWSRLAPAKRKATMIRFAGLLEQNAEELALLETLDMGKPISDSLGVDIPGGARALSWSGEAIDKLYDEVAATPHDQLGLVTREPVGVVAAIVPWNFPLMMACWKLGPALSTGNSVVLKPSEKSPLTAIRIAQLAIEAGIPAGVLNVLPGYGHTVGKALALHMDVDTVVFTGSTKIAKQLMIYAGESNMKRVWLEAGGKSPNIVFADAPDLQAAADSAASAIAFNQGEVCTAGSRLLVERSIKDRFLPMVIEALGTWKPGNPLDPATNVGALVDTQQMNTVLSYIAAGHTDGARLVAGGKQILQETGGTYVEPTIFDGVNNAMRIAQEEIFGPVLSVLTFDTAEEAIQIANDTPYGLAAAVWTANLSKAHLTARALRAGSVWVNQYDGGDMTAPFGGFKQSGNGRDKSLHAFDKYTELKSTWIKL
notes: AldA (PSPTO_0092), aldehyde dehydrogenase of Pseudomonas syringae pv. tomato strain DC3000; estimated Mr 52.7 kDa without the tag; The full-length CDS is stated for the pET21a-0092 construct; pET28a-AldA was made with the same NdeI and XhoI sites; also called IAAld dehydrogenase; source: E. coli BL21 (DE3), pET28a-AldA, purified (Ni-NTA, Superdex-200 size exclusion); not shown: His6, N-terminal, …

Experiments:
[1] = molecular target: T1, AldA (Pseudomonas syringae group genomosp. 3, UniProt Q88BC5); experiment: X-ray crystal structure of complex; assay type: binding; conditions: pH 8.5
T1 construct: gene PSPTO_0092; full-length, N-terminal hexahistidine tag (pET28a, NdeI/XhoI), E. coli BL21(DE3); tetramer; catalytic Cys302

[2] = system: NC(=O)c1ccc[n+]([C@@H]2O[C@H](COP(=O)(O)OP(=O)(O)OC[C@H]3O[C@@H](n4cnc5c(N)ncnc54)[C@H](O)[C@@H]3O)[C@@H](O)[C@H]2O)c1; experiment: purified protein; conditions: 1.0 mM IAAld, 100 mM Tris-HCl pH 8.0, 100 mM KCl, 25 °C, NAD+ varied, varied: cofactor
[3] = system: NC(=O)c1ccc[n+]([C@@H]2O[C@H](COP(=O)(O)OP(=O)(O)OC[C@H]3O[C@@H](n4cnc5c(N)ncnc54)[C@H](OP(=O)(O)O)[C@@H]3O)[C@@H](O)[C@H]2O)c1; experiment: purified protein; conditions: 1.0 mM IAAld, 100 mM Tris-HCl pH 8.0, 100 mM KCl, 25 °C, NADP+ varied, varied: cofactor
[4] = system: O=CCc1c[nH]c2ccccc12; experiment: purified protein; conditions: 1.0 mM NAD+, 100 mM Tris-HCl pH 8.0, 100 mM KCl, 25 °C, IAAld varied 0.05-2.5 mM
[5] = molecular target: Aldehyde dehydrogenase AldC (PSPTO_3644) (Pseudomonas syringae pv. tomato strain DC3000); experiment: SEC; His-tagged protein on a Superdex-200 26/60 column in 25 mM Hepes (pH 7.5), 100 mM NaCl; column calibrated with molecular weight standards
[6] = molecular target: Aldehyde dehydrogenase AldB (PSPTO_2673) (Pseudomonas syringae pv. tomato strain DC3000); experiment: as above
[7] = molecular target: the molecule itself; experiment: as above

| Molecule | Km [2] [µM] | kcat [2] [s⁻¹] | kcat/Km [2] [M⁻¹ s⁻¹] | Km [4] | kcat [4] [s⁻¹] | kcat/Km [4] [M⁻¹ s⁻¹] | further results |
| --- | --- | --- | --- | --- | --- | --- | --- |
| NC(=O)c1ccc[n+]([C@@H]2O[C@H](COP(=O)(O)OP(=O)(O)OC[C@H]3O[C@@H](n4cnc5c(N)ncnc54)[C@H](O)[C@@H]3O)[C@@H](O)[C@H]2O)c1 [NAD^+] | – | – | – | – | – | – | X-ray crystal structure of complex ([1]; 5 mM NAD+, cofactor binding site, also in the ternary complex 5IUW): AldA (5IUU); AldA•NAD^+ (5IUV); and AldA•NAD^+•IAA (5IUW) |
| AldA (Pseudomonas syringae pv. tomato str. DC3000) | 42 ± 8 | 3.23 ± 0.15 | 77400 | 119 ± 37 µM | 3.9 ± 0.35 | 32800 | Km [3]: 1,960 ± 182 µM; kcat [3]: 0.5 ± 0.0167 s⁻¹; kcat/Km [3]: 252 M⁻¹ s⁻¹ |
| O=C(O)Cc1c[nH]c2ccccc12 [IAA] | – | – | – | – | – | – | X-ray crystal structure of complex ([1]; 5 mM NAD+ and 5 mM IAA, dead-end ternary complex, 1.93 Å, substrate site near Cys302): AldA (5IUU); AldA•NAD^+ (5IUV); and AldA•NAD^+•IAA (5IUW) |
| AldB (Pseudomonas syringae pv. tomato str. DC3000) | 33.4 ± 9.2 | 0.035 ± 0.00167 | 1040 | 595 ± 39 µM | 0.145 ± 0.00333 | 244 | – |
| Aldehyde dehydrogenase AldC (PSPTO_3644) (enzyme) | – | – | – | – | – | – | stoichiometry N [5]: 2 |
| AldC (Pseudomonas syringae pv. tomato str. DC3000) | 445 ± 99 | 0.00667 ± 0.000167 | 14 | 1,280 ± 161 µM | 0.06 ± 0.00333 | 46 | – |
| Aldehyde dehydrogenase AldB (PSPTO_2673) (enzyme) | – | – | – | – | – | – | stoichiometry N [6]: 4 |
| B1 | – | – | – | – | – | – | stoichiometry N [7]: 4 |
